Molecular target: anti-CD3 idiotype ScFv (CAR6) fused to the 28z-CAR-membrane-bound IL-15 construct, on cord blood-derived NK cells
Test: cell-based or functional assay

REGN1979 (bispecific antibody)
Max Activity, CCL5 release (pg/ml), CBNK/CAR6 cells + Ramos/HiBiT: 6.9 pg/mL | Max Activity, Cytotoxicity (%), CBNK/CAR6 cells + Ramos/HiBiT: 25.5% | Max Activity, FasL release (pg/ml), CBNK/CAR6 cells + Ramos/HiBiT: 16.4 pg/mL | Max Activity, Granzyme A release (pg/ml), CBNK/CAR6 cells + Ramos/HiBiT: 643 pg/mL | Max Activity, Granzyme B release (pg/ml), CBNK/CAR6 cells + Ramos/HiBiT: 239 pg/mL | Max Activity, IFNγ release (pg/ml), CBNK/CAR6 cells + Ramos/HiBiT: 45.6 pg/mL | Max Activity, TNFα release (pg/ml), CBNK/CAR6 cells + Ramos/HiBiT: 11.9 pg/mL
